# Publication PMC12401731
# Experiments:
# [1] = target: HTp66 K259A (HIV-1); assay: mass photometry
# [2] = target: HIV-1 RT p66 with TEV-cleavable N-terminal His tag (HTp66) (HIV-1); assay: cross-linking + other: mass photometry
# [3] = target: HIV-1 RT p66 with TEV-cleavable N-terminal His tag (HTp66) (HIV-1); assay: mass photometry
Substance,percent dimer at 500 nM JLJ648 [1] [%],percent of the population as dimer [2] [%],percent dimer at 500 nM JLJ648 [3] [%]
HTp66 K259A (enzyme),52,–,–
HIV-1 RT p66 with TEV-cleavable N-terminal His tag (HTp66) (enzyme),–,26,58
